# Assay results as given in patent US20170226158A1 (AstraZeneca / MedImmune, published 2017).
# Residue numbers refer to the chain shown, from its start.
# B1: DARPin 1 (template L-Myc DARPin, net charge -13) (designed binder)
# chain: DLGKKLLEAARAGQDDEVRILMANGADVNAMDQYGFTPLHLAAWYGHLEIVEVLLKHGADVNAKDVHGFTPLHLAAWTGHLEIVEVLLKNGADVNARDNEGSTPLHLAALAGHLEIVEVLLKNGADVNAQDKFGKTAFDISIDNGNEDLAEILQKL
# notes: also called tDARPin S-13; S-13 tDARPin
# B2: KRAS mut8 (designed binder)
# chain: DLGKKLLEAARAGQNDKVRILMANGAKVNARDHTGFTPLHLAAQHGHRKIVKVLLKNGAKVNAVDWFGRTPLHLAAKMGHLEIVKVLLKHGANVKADDHNGRTPLHLAAWEGHLEIVKVLLKYGAKVNAQDKFGKTAFDISIENGNEKLAKILQKL
# notes: Net charge 12; Tested on phage
# B3: KRAS mut9 (designed binder)
# chain: B2 chain with K60N, N62K, L81R, E82K, K85E, L114R, E115K, K126D
# notes: Net charge 14; Tested on phage
# B4: KRAS mut6 (designed binder)
# chain: B2 chain with K60D, N93K, K95N
# notes: Net charge 10; Tested on phage
# B5: KRAS mut10 (designed binder)
# chain: B2 chain with L114R, E115K, I142V
# notes: Net charge 15; Tested on phage
# B6: KRAS mut11 (designed binder)
# chain: B2 chain with L81R, E82K, N93D, K95N, L114R, E115K
# notes: Net charge 16; Tested on phage
# B7: KRAS mut7 (designed binder)
# chain: B2 chain with K27N, R48L, K49E, L81R, E82K
# notes: Net charge 11; Tested on phage
# B8: CD73 mut11 (designed binder)
# chain: DLGKKLLEAARAGQNDKVRILMANGAKVNAADTWGRTPLHLAAYHGHLEIVKVLLKHGANVNAEDIHGFTPLHLAALWGHRKIVKVLLKNGAKVNAVDWYGHTPLHLAAIDGHRKIVKVLLKHGAKVNAQDKFGKTAFDISIENGNEKLAKILQKL
# notes: as for B7
# B9: LMYC mut8 (designed binder)
# chain: DLGKKLLEAARAGQNDKVRILMANGAKVNAMDQYGFTPLHLAAWYGHRKIVKVLLKHGANVKAKDVHGFTPLHLAAWTGHLEIVKVLLKNGANVKARDNEGSTPLHLAALAGHLEIVKVLLKNGAKVNAQDKFGKTAFDISIENGNEKLAKILQKL
# notes: as for B7
# B10: LMYC mut9 (designed binder)
# chain: B9 chain with N93K, K95N
# notes: as for B7
# B11: LMYC mut7 (designed binder)
# chain: B9 chain with K27N, N29K, K85E, N93D, K95N, L114R, E115K
# notes: Tested on phage
# B12: LMYC mut11 (designed binder)
# chain: B9 chain with K27D, L81R, E82K
# notes: as for B2
# Biological target: T1, SUMO-L-Myc fusion protein (recombinant bHLHZip domain of L-Myc fused with a small ubiquitin-like modifier … (UniProt P12524 281-364))
# T1 construct: not shown: small ubiquitin-like modifier (SUMO) protein
# T1 sequence (looked up): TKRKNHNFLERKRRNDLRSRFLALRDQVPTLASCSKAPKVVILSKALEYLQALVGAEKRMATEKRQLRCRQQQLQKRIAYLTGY
# Assay: second phage ELISA on coated antigens
row,Binder,binding result
1,B1,binds

# Biological target: T2, KRAS (UniProt P01116-2 1-188, limits assumed)
# T2 construct: Target antigen in phage ELISA; construct not described
# Assay: phage ELISA on target antigen, signal as % of parental WT
row,Binder,% antigen binding activity retained (relative to parental)
1,B2,> 50%
2,B3,> 50%
3,B4,> 50%
4,B5,> 50%
5,B6,> 50%
6,B7,> 50%

# Biological target: T3, CD73 (UniProt P21589 27-549, limits assumed)
# T3 construct: Target antigen in phage ELISA; construct not described
# T3 sequence (looked up): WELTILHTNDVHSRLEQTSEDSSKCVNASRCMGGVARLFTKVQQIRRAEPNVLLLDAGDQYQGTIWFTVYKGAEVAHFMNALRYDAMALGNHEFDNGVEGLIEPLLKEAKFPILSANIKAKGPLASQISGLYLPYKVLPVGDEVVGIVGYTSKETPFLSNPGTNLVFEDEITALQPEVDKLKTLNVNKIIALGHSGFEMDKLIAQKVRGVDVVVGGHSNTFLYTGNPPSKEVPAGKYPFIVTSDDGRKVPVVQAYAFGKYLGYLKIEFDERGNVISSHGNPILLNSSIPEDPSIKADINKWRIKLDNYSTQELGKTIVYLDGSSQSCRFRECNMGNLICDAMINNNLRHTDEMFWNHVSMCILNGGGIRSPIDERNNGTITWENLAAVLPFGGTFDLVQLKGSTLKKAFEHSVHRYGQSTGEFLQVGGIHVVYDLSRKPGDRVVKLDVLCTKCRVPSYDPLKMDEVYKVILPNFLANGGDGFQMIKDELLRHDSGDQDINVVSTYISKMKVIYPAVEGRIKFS
# Assay: as above
row,Binder,% antigen binding activity retained (relative to parental)
1,B8,> 50%

# Biological target: T1, SUMO-L-Myc fusion protein (recombinant …)
# Assay: as above
row,Binder,% antigen binding activity retained (relative to parental)
1,B9,> 50%
2,B10,> 50%
3,B11,> 50%
4,B12,> 50%
